We go through two molecules from patent US20140087995A1 (published 2014).

By IC50 is commonly meant the point on the concentration scale where inhibition reaches its midpoint.

Numbered stars: 1 amine (or outer) side, 2 acyl side, 3 side chain; on linkers, the order of the positions; unused ones are H or OH. Bridge positions count the residues as written; N and C are the ends. Side chains are listed from the residue outwards. Ends that are not written are not given here. * marks the point of attachment. C20 diacid = O=C(O)CCCCCCCCCCCCCCCCCCC(=O)*; γGlu = O=C(O)[C@H](CCC(=O)[*:2])N[*:1]

The target in this assay is T1, human amylin receptor (amylin 3(a) receptor: human calcitonin receptor with RAMP-3) (human, UniProt P30988 25-474; O60896 24-148).
T1 construct: whole, on cells; also called hAmylin-R; hAmylinR
T1 sequence (looked up) 1: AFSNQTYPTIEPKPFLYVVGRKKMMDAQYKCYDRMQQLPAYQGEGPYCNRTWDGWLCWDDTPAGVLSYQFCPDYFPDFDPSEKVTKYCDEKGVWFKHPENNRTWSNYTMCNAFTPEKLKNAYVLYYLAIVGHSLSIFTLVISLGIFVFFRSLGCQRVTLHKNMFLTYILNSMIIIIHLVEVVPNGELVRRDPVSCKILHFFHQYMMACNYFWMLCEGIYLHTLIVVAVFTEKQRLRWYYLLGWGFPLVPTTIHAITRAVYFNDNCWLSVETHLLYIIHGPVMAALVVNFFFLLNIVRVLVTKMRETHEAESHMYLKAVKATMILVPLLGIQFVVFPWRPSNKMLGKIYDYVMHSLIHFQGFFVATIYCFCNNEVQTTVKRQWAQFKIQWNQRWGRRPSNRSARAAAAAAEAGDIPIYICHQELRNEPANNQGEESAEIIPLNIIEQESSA
T1 sequence (looked up) 2: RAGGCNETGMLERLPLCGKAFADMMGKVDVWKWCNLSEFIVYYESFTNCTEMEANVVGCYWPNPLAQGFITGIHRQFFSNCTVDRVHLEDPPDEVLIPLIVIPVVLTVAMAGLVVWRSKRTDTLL
The assay is described as follows: SPA displacement of 125I-rat amylin, hAmylin 3(a) receptor membranes. In outline: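 One-site competition analysis of SPA counts yielded IC₅₀ as a measure of affinity. Membranes were at 35 ng/μL final; incubation was 120 min at 25° C, pH 7.4.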
On the technique in general: Displacement assays read how much labelled ligand stays bound in the presence of the test substance.

B1: N^ε1-[(4S)-4-carboxy-4-(19-carboxynonadecanoylamino)butanoyl]-[Arg14,Arg17,Pro21,Pro27,Pro34]-h-amylin (peptide)
peptide: K([γGlu-C20 diacid])CNTATCATQRLARFLRHSSPNFGAIPSSTNVGPNTY-NH2
modifications: disulfide 2-7; N-terminus assumed
SMILES: CC[C@H](C)[C@H](NC(=O)[C@H](C)NC(=O)CNC(=O)[C@H](Cc1ccccc1)NC(=O)[C@H](CC(N)=O)NC(=O)[C@@H]1CCCN1C(=O)[C@H](CO)NC(=O)[C@H](CO)NC(=O)[C@H](Cc1c[nH]cn1)NC(=O)[C@H](CCCNC(=N)N)NC(=O)[C@H](CC(C)C)NC(=O)[C@H](Cc1ccccc1)NC(=O)[C@H](CCCNC(=N)N)NC(=O)[C@H](C)NC(=O)[C@H](CC(C)C)NC(=O)[C@H](CCCNC(=N)N)NC(=O)[C@H](CCC(N)=O)NC(=O)[C@@H](NC(=O)[C@H](C)NC(=O)[C@@H]1CSSC[C@H](NC(=O)[C@@H](N)CCCCNC(=O)CC[C@H](NC(=O)CCCCCCCCCCCCCCCCCCC(=O)O)C(=O)O)C(=O)N[C@@H](CC(N)=O)C(=O)N[C@@H]([C@@H](C)O)C(=O)N[C@@H](C)C(=O)N[C@@H]([C@@H](C)O)C(=O)N1)[C@@H](C)O)C(=O)N1CCC[C@H]1C(=O)N[C@@H](CO)C(=O)N[C@@H](CO)C(=O)N[C@H](C(=O)N[C@@H](CC(N)=O)C(=O)N[C@H](C(=O)NCC(=O)N1CCC[C@H]1C(=O)N[C@@H](CC(N)=O)C(=O)N[C@H](C(=O)N[C@@H](Cc1ccc(O)cc1)C(N)=O)[C@@H](C)O)C(C)C)[C@@H](C)O
notes: also called 65; compound 65
For B1, the IC50 amounted to 0.649 nM.

B2: N^ε1-[(4S)-4-carboxy-4-(19-carboxynonadecanoylamino)butanoyl]-[Arg14,Arg17,Pro21,Pro27]-h-amylin (peptide)
peptide: K([γGlu-C20 diacid])CNTATCATQRLARFLRHSSPNFGAIPSSTNVGSNTY-NH2
modifications: disulfide 2-7; N-terminus assumed
SMILES: CC[C@H](C)[C@H](NC(=O)[C@H](C)NC(=O)CNC(=O)[C@H](Cc1ccccc1)NC(=O)[C@H](CC(N)=O)NC(=O)[C@@H]1CCCN1C(=O)[C@H](CO)NC(=O)[C@H](CO)NC(=O)[C@H](Cc1c[nH]cn1)NC(=O)[C@H](CCCNC(=N)N)NC(=O)[C@H](CC(C)C)NC(=O)[C@H](Cc1ccccc1)NC(=O)[C@H](CCCNC(=N)N)NC(=O)[C@H](C)NC(=O)[C@H](CC(C)C)NC(=O)[C@H](CCCNC(=N)N)NC(=O)[C@H](CCC(N)=O)NC(=O)[C@@H](NC(=O)[C@H](C)NC(=O)[C@@H]1CSSC[C@H](NC(=O)[C@@H](N)CCCCNC(=O)CC[C@H](NC(=O)CCCCCCCCCCCCCCCCCCC(=O)O)C(=O)O)C(=O)N[C@@H](CC(N)=O)C(=O)N[C@@H]([C@@H](C)O)C(=O)N[C@@H](C)C(=O)N[C@@H]([C@@H](C)O)C(=O)N1)[C@@H](C)O)C(=O)N1CCC[C@H]1C(=O)N[C@@H](CO)C(=O)N[C@@H](CO)C(=O)N[C@H](C(=O)N[C@@H](CC(N)=O)C(=O)N[C@H](C(=O)NCC(=O)N[C@@H](CO)C(=O)N[C@@H](CC(N)=O)C(=O)N[C@H](C(=O)N[C@@H](Cc1ccc(O)cc1)C(N)=O)[C@@H](C)O)C(C)C)[C@@H](C)O
notes: also called 83; compound 83
Turning to B2, the IC50 amounted to 0.939 nM.
